Test results as given in the nanobody polyreactivity screen of Harvey et al. (2022).

Assay: yeast display, Sf9 membrane polyspecificity reagent, FACS + sequencing; frameworks hold sequencing errors
Summary of the method: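 In a synthetic yeast display library (Saccharomyces cerevisiae BJ5465), nanobody expression was induced with galactose for 36–48 hours. FACS gates were set low and high (top ~1%) using anti-HA fluorescence for expression and streptavidin fluorescence for binding of the Sf9 membrane reagent. Each polyreactivity label is drawn from the gate of origin.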

Row | Sequence | polyreactivity (PSR sort gate)
1 | QVQLVESGGGLVQAGGSLRLSCAASGRTFVFYAMGWYRQAPGKESEFVARITWSGGRTFYADSVKGRFTISRDNAKNTVYLQMNSLKPEDTAVYYCAARGHDAVIATRYDYWGQGTQVTVSS | high polyreactivity
2 | QVQLVESGGGLVQAGGSLRLSCAASGRTFVFYTMGWYRQAPGKERELVAAINSRGGRTYYADSVKGRFTISRDNAKNPVYLQMNSLKPEDTAVYYCNAAFYVTDHDYWGKGTQVTVSS | high polyreactivity
3 | QVQLVESGGGLVQAGGSLRLSCAASGRTFVGNAIGWYRQATGKERELVAAINGSGGSTYYEDSVKGRFTISRDNAKNTVYLQMNSLKPEDPAVYYCNARPGVYVVIYDYWGQGTQVTVSS | low polyreactivity
4 | QVQLVESGGGLVQAGGSLRLSCAASGRTFVGYAMGWYRQAPGKERELVAAISGGGRTNYADSVKGRFTISRDNAKNTVYLQMISLKPEDTAVYYFAARLVKYFRPYDYWGQGTQVTVSS | high polyreactivity
5 | QVQLVESGGGLVQAGGSLRLSCAASGRTFVGYAMGWYRQAPGKERELVAAITSGGSTYYADSVKGRFTISRDNAKNTVYLQMNSLKPEDTAVYYCATALYDWYSLEFDYWGQGTQVTVSS | low polyreactivity
6 | QVQLVESGGGLVQAGGSLRLSCAASGRTFVGYAMGWYRQAPGKERELVAAMSASGTSTYYADSVKGRFTISRDNAKNTVYLQMNSLKPEDTAVYYCAKAKDLPPRYGSWGQGTQVTVSS | high polyreactivity
7 | QVQLVESGGGLVQAGGSLRLSCAASGRTFVIYAMGWYRQAPGKASELVAGIDSGTSTYADSVKGRFTISRDNAKNTVYLQMNSLKPEDTAVYYCAADFAPDGSGWYIPGDYDSWGQGTQVTVSS | low polyreactivity
8 | QVQLVESGGGLVQAGGSLRLSCAASGRTFVLNAMGWYRQAPGKERELVAAITLGGGSTYADSVKGRFTISRDNAKNTVYLQMNSLKPEDTAVYYCAADFHYPDFEYWGQGTQVTVSS | low polyreactivity
9 | QVQLVESGGGLVQAGGSLRLSCAASGRTFVPNAMGWYRQAPGKERELVAAISWSGDSTYYADSVKGRFTISRDNAKNTVYLQMNSLKPEDTAVYYCAADPFFGVSIGGLKYHFDYWGQGTQVTVSS | low polyreactivity
10 | QVQLVESGGGLVQAGGSLRLSCAASGRTFVPNAMGWYRQAPGKERELVARISSGDSTYYADSVKGRFTISRDNAKNTVYLQMNSLKPEDTAVYYCAASGRQNGYGRRQYYYWGQGTQVTVSS | high polyreactivity
11 | QVQLVESGGGLVQAGGSLRLSCAASGRTFVPYAMGWYRQAPGKERELVAAISARGSSTYYADSVKGRFTISRDNAKNTVYLQMNSLKPEDTAVYYCNAVGARVASATGMEYWGQGTQVTVSS | high polyreactivity
12 | QVQLVESGGGLVQAGGSLRLSCAASGRTFVPYAMGWYRQAPGKERELVAAISSGGDTNYADSVKGRFTISRDNAKNTVYLQMNSLKPEDSAVYYCAKDLTQIYYGDDYWGQGTQVTVSS | low polyreactivity
13 | QVQLVESGGGLVQAGGSLRLSCAASGRTFVRNAMGWYRQAPGKERELVAAISGSAGRTYYADSVKGRFTISRDNAKNTVYLQMNSLKPEDTAVYYCAKDTTVYGYYYWGQGTQVTVSS | high polyreactivity
14 | QVQLVESGGGLVQAGGSLRLSCAASGRTFVRYAMGWYRQAPGKERELVAAISQSGGDTYYADSVKGRFTISRDNAKNTVYLQMNSLKPEDTPVYYCAARSDDVSRYGYWGQGTQVTVSS | low polyreactivity
15 | QVQLVESGGGLVQAGGSLRLSCAASGRTFVRYAMGWYRQAPGKERELVAAISRTGGTTYYADSVKGRFTISRDNAKNTVYLQMNSLKPVDTAVYYCNADPFYKYGYWGQGTQVTVSS | high polyreactivity
16 | QVQLVESGGGLVQAGGSLRLSCAASGRTFVRYAMGWYRQAPGKERELVAAISWSGGSTYYADSVKGRFTISRDNAKNTVYLQKNSLKPEDTAVYYCAAVDETPSSHEEDYWGQGTQVTVSS | high polyreactivity
17 | QVQLVESGGGLVQAGGSLRLSCAASGRTFVRYAMGWYRQAPGKERELVARITSRGTSTYYADSVKGRFTISRDNAKNTVYLQMNSLKPEDTAFYYCNKVRTFRDKSRYDYWGQGTQVTVSS | low polyreactivity
18 | QVQLVESGGGLVQAGGSLRLSCAASGRTFVRYTMGWYRQAPGKERELVAAISGSGSSTFYADSVKGRFTISRDNAKNTVYLQMNSLKPVDTAVYYCAARVRRVARDPYDYWGQGTQVTVSS | high polyreactivity
19 | QVQLVESGGGLVQAGGSLRLSCAASGRTFVSNALGWYRQAPGKERELVAAISSSGGSTYYADSVKGRFTISRDNAKNTVYLQMNSLKPEDPAVYYGATYPLYSKYRYDHWGQGTQVTVSS | high polyreactivity
20 | QVQLVESGGGLVQAGGSLRLSCAASGRTFVSNAMGWYRQAPGKERELVAAISVRGGRTYYADSVKGRFTISRDNAKNTVYLQMNSLKPEDTAVYYCNAVYRTYEYYWGQGTQVTVSS | high polyreactivity
21 | QVQLVESGGGLVQAGGSLRLSCAASGRTFVSNAMGWYRQAPGKERELVAVITGIGGNTYYADSVKGRFTISRDNAKTTVYLQMYSLKPEDTAVYYCAADQIYSFYPVYGSWIYSMYYWGQGTQVTVSS | low polyreactivity
22 | QVQLVESGGGLVQAGGSLRLSCAASGRTFVSYAMGWYRQAPGKERELVAAINGNGASTRYADSVKGRFTISRDNAKNTVYLQMNSLKPEDTAVYYCNTGRRFYGYNYWGQGTQVTVSS | high polyreactivity
23 | QVQLVESGGGLVQAGGSLRLSCAASGRTFVTYAKGWYRQAPGKERELVAAISASGGSTYYADSVKGRFTISRDNAKNTVYLQMNSLNPEDTAVYYCAKTYFLATPYGYWGQGTQVTVSS | low polyreactivity
24 | QVQLVESGGGLVQAGGSLRLSCAASGRTFVTYAMGWYRQAPGKERELVAAISASGGSTYYADSVKGRFTISRDNAKNTVYLQMNSLKPEDTAVYYCAKTYFLATPYGYWGQGTQVTVSS | low polyreactivity
25 | QVQLVESGGGLVQAGGSLRLSCAASGRTFVVYAMGWYRQAPGKERELVAAISRGGSRTYYADSVKGRFTISRDNAKNTVYLQMNSLKPEDTAVYYCAKVIPAYPDSDYNYWGQGTQVTVSS | high polyreactivity
26 | QVQLVESGGGLVQAGGSLRLSCAASGRTFVWNVMGWYRQAPGKEREFVAAISGGSTYYADSVKGRFTISRDNAKNTVYLKMNSLKQEDTPVYYCAAASKLHPRYEYWGQGTQVTVSS | low polyreactivity
27 | QVQLVESGGGLVQAGGSLRLSCAASGRTFVWNVMGWYRQAPGKEREFVAAISGGSTYYADSVKGRFTISRDNAMNTVYLEMNSLKPEDTAVYYCADASKLHPRYEYWGQGTQVTVSS | low polyreactivity
28 | QVQLVESGGGLVQAGGSLRLSCAASGRTFVYNAMGWYRQAPGKERELVAAIDGGGDRTYYADSVKGRFTISRDNAKNTVYLQMNSLKQEDTAVYFCARDPGDTYYYSYPEGDYWGQGTQVTVSS | low polyreactivity
29 | QVQLVESGGGLVQAGGSLRLSCAASGRTFVYNAMGWYRQAPGKERELVAAISFGGGNTYYADSVKGRFTISRDNAKNTVYLQMNSLKPEYTAVYYCAARAGAGPLDYDYWGQGTQVTVSS | low polyreactivity
30 | QVQLVESGGGLVQAGGSLRLSCAASGRTFVYNAMGWYRQAPGKERELVAAISSSGGSTRYADSVKGRFTISRDNAKNTVYLQMNSLKPEDTAVYYCNRLRYSNRYDSWGQGTQVTVSS | high polyreactivity
